According to US20250090677A1 (MULTITUDE THERAPEUTICS, published 2025):

What was measured:
human CDH10-ECD-His = target: T1, human CDH10-ECD-His (human, UniProt Q9Y6N8 55-613); assay: ELISA, antigen coated at 1 ug/mL, 3-fold dilutions of CL069707-H1L1, HRP anti-human antibody, OD450
T1 construct: extracellular domain; Bought protein; also called CDH10-ECD-His protein; not shown: His tag
T1 sequence (looked up): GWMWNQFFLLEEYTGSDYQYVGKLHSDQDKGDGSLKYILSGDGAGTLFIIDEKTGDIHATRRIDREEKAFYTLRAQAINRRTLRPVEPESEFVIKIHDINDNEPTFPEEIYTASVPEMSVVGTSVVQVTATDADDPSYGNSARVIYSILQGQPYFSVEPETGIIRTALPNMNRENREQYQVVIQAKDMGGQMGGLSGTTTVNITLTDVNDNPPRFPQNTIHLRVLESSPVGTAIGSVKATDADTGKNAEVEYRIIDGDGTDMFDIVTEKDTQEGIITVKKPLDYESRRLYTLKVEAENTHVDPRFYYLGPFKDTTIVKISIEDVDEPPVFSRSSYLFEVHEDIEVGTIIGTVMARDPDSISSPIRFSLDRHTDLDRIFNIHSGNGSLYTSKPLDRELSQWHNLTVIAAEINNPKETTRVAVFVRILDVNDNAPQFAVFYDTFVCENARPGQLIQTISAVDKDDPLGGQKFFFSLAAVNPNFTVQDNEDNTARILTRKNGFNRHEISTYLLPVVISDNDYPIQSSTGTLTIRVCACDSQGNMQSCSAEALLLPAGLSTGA
Experimental: CDH9 and […] are the most closely related family members to CDH6. Binding of CL069707-H1L1 on human CDH6, CDH9 and CDH10 ECD domains were analyzed by ELISA Binding Assay. Human […], CDH9-ECD-His and CDH10-ECD-His antigens were obtained from Acro Biosystems, Inc. 100 μL of 1 μg/mL of the antigens diluted in PBS were added to 96 well plates and incubated in 4° C. overnight. The plates were washed 3 times with 300 μL of washing buffer. Then 100 μL/well of 1% BSA blocking reagent were added to the plates, and incubated at 37° C. for 1 h then the blocking reagent were discarded. A 3-fold serial dilution of CL069707-H1L1 was added to the plates and then incubated at 37° C. for 1 h. Then the plates were washed 3 times with 300 μL of washing buffer. 100 μL/well of HRP-conjugated anti-Human antibody diluted in 1% BSA were added to the plates and then incubated at 37° C. for 1 h. The plates were washed 3 times with 300 μL of washing buffer. 100 μL/well of TMB substrate were added to the plates and incubated for about 10 min in room temperature. Then the reaction was stopped with 100 μL/well of stopping solution. OD450 was read with a plate reader and the data were processed.

[1] = target: T2, CDH6 on the cell surface of OVCAR-3 cells (human ovarian cancer cells) (human, UniProt P55285 54-790); assay: flow cytometry (FACS) on OVCAR-3 cells, antibody titration, labelled secondary antibody, MFI
T2 construct: whole, on cells; also called CDH6-positive human ovarian cancer cell line OVCAR-3
T2 sequence (looked up): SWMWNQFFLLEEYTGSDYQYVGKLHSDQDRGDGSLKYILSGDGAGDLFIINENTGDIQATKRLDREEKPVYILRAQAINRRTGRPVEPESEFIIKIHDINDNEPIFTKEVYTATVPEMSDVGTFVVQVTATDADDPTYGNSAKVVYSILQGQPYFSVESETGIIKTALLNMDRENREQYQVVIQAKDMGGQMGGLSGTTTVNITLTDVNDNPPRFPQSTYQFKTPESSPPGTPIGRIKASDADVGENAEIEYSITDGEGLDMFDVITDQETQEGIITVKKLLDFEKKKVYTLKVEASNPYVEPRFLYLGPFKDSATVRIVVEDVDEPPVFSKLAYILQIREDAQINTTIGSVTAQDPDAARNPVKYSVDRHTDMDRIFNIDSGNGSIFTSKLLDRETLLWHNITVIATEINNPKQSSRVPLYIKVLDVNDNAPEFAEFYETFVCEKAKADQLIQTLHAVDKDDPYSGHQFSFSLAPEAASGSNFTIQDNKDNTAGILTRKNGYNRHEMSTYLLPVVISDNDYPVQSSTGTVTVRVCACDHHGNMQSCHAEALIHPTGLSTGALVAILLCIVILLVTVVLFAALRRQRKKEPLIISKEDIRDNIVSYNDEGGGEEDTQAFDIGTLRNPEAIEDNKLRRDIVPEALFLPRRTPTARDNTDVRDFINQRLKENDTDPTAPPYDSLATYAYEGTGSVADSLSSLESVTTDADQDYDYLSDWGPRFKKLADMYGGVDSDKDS
Experimental: The binding EC50 of the humanized antibodies on tumor cell were tested as follow. Human ovarian cancer cell line OVCAR-3(purchased from National Collection of Authenticated Cell Cultures) cell culture was maintained in vitro as independent monolayer cultures at 37° C. in an atmosphere of 5% CO₂. The cells were harvested using trypsin-EDTA partial digestion followed by centrifugation at 1000 rpm for 5 minutes. The cell was resuspended in cold PBS and serial dilution of Ch069707 and CL069707-H1L1, CL069707-H1L2, CL069707-H2L1 and CL069707-H2L2 antibodies were added. Ch069707 antibody was a chimeric antibody. The variable regions were the same as those of CL069707, and the constant region was the same as human IgG1 constant regions (SEQ ID NO: 70 and SEQ ID NO: 71). The cell solutions were mixed, incubated at 4° C. and washed with cold PBS prior to addition of secondary antibody conjugates (for detection purposes). After incubation at 4° C., the cells were washed with PBS, and then subjected to flow cytometry (FACS) analysis.

binding result (human CDH10-ECD-His): no binding (tested: 100 nM)
EC50 (read off the curve) [1]: ~1 nM
B1: CL069707-H1L1 (antibody, human IgG1, kappa, V domains shown)
VH: EVQLVESGGGLVQPGGSLRLSCAASGFTFTTYAMNWVRQAPGKGLEWVARIRIKNNNYATYYADSVTDRFTISRDDSKNSLYLQMNSLKTEDTAVYYCVRPDYGNYGLAYWGQGTLVTVSS
VL: DIQLTQSPSSLSASVGDRVTITCSASSSISSHYLHWYQQKPGKSPKLLIYRSFYLASGVPSRFSGSGSGTDFTLTISSLQPEDFATYYCQQDIVPLTFGQGTKLEIKR
notes: Humanized IgG1/kappa, produced in 293 cells; also called humanized CL069707-H1L1
